From patent US20170037133A1

Columns and labels:
[1] = target: CD155 (PVR) (UniProt P15151); assay: cell-based or functional assay
[2] = target: CD112 (Nectin-2, PVRL2) (UniProt Q92692); assay: cell-based or functional assay
Sequence of UniProt Q92692 (Q92692 32-538 limits assumed): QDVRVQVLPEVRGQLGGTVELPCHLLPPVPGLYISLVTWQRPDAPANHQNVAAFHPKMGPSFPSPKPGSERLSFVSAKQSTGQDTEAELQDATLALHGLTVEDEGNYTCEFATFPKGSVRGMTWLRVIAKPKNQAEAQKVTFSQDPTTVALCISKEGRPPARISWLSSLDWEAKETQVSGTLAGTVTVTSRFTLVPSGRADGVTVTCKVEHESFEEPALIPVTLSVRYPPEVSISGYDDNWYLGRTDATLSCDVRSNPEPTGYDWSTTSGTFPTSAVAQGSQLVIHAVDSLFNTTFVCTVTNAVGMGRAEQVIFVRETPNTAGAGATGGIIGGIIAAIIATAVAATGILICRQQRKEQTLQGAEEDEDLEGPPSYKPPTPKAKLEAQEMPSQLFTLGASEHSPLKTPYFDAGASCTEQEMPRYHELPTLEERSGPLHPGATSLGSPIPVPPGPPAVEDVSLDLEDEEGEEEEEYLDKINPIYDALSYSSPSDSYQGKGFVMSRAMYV

Sequence of UniProt P15151 (P15151 21-417 limits assumed): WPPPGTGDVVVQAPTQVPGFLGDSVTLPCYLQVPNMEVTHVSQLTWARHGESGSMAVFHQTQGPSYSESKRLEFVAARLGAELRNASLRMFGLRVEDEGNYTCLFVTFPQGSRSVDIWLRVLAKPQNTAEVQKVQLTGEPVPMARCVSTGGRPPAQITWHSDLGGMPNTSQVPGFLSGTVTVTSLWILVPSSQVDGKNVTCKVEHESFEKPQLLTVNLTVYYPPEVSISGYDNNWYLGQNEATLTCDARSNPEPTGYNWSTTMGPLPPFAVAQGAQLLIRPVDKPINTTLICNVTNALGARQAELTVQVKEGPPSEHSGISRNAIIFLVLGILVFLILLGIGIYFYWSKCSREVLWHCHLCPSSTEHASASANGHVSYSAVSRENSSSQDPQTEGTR

## mouse anti-PVR clone D171 (antibody)
[1]
  MV4-11 cell lysis in the presence of 0.1 ng/ml AMG 330: 49.7%
  cell kill of MV4-11 (7-AAD positive target cells, 24 h co-culture with PBMCs, no AMG 330): 33%

## mouse anti-PVRL2 clone L14 (antibody)
[2]
  MV4-11 cell lysis in the presence of 0.1 ng/ml AMG 330: 57.9%
  cell kill of MV4-11 (7-AAD positive target cells, 24 h co-culture with PBMCs, no AMG 330): 40.4%
